Series [1] deals with ZF11xHunt-Kox-1 (Artificial). Briefly: cell_activity.
Series [2] relates to ZF6xHunt-Kox-1 (Artificial). Briefly: cell_activity. The note with it: htt mRNA (up to 2.5-fold); protein up to 2-fold; STHdh Q111/Q111, 20 days.

Some results are limits rather than exact numbers.

Sequence of ZF11xHunt-Kox-1 (Artificial) (chain, as listed by the source): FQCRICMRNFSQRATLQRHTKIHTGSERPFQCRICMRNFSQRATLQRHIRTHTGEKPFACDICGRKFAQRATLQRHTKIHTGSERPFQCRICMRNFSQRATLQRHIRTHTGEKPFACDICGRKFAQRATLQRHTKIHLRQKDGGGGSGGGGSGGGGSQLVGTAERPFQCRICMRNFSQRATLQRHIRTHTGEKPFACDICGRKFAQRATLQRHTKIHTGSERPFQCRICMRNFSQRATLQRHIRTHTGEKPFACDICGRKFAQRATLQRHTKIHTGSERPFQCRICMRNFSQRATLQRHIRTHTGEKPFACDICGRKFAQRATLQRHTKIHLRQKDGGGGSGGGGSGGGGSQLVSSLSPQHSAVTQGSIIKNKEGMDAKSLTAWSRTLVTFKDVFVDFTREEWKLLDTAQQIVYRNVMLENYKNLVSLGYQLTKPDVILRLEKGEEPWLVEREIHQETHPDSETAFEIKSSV
Sequence of ZF6xHunt-Kox-1 (Artificial) (chain, as listed by the source): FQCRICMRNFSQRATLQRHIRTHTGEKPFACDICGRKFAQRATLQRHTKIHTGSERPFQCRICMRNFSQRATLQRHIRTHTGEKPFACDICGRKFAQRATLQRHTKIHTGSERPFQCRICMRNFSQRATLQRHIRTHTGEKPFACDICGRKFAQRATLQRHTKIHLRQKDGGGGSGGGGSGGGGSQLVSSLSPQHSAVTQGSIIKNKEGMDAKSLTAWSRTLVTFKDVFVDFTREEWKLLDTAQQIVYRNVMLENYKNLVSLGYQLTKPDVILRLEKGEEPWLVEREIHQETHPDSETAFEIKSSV

As to STHdh Q111 mutant htt locus, the activity (% mRNA reduction) in series [1] (protein reduced 95%, STHdh Q111/Q111, 20 days) turned out to be 80. This substance had an activity (fold repression) in series [2] of under 2.5.

In series [1] (AAV2/1 striatal delivery, R6/2 mice, week 6, average), R6/2 mutant HTT transgene gave an activity (% mRNA reduction) of over 45.

(Values after patent US20130336947.)
